# Laboratory results taken from publication PMC4338161.
# Biological target: BK α W176C (S2–S3 loop) in the pWTb background (mouse)
# Experiment: cross-linking
substance,measurement,value
BK β1 subunit G12C (TM1 flank) in the pWT β1 background (from UniProt Q16558-1 1-191) (natural protein),extent of cross-linking,80%
